Positions count from the first letter of the chain named.
B1: P1-068761_H100G_E100fF (antibody, V domains shown)
VH: EVQLVESGGGLVQPGKSLRLSCAASGFTLEDEAMHWVRQAPGKGLEWVSGINWNSEEIGYADSVKGRFTISRDNAKNSLYLQMNSLRTEDTALYYCAKVPGYSGGWIDAFDVWGQGTMVTVSS
VL: not shown
B2: P1-068761_E32Y_E56N (antibody, V domains shown)
VH: B1 VH with E32Y, E57N, G104H, F110E
VL: not shown
B3: P1-068761_E30D_E100fF (antibody, V domains shown)
VH: B1 VH with E30D, G104H
VL: not shown
B4: P1-070904 (P1-068767_E30D) (antibody, V domains shown)
VH: B1 VH with E30D, E32Y, N52D, E57N, F110E, V112D
VL: not shown
B5: P1-070916 (P1-068767_D52N_E55A) (antibody, V domains shown)
VH: B1 VH with E32Y, E56A, E57N, F110E, V112D
VL: not shown
B6: P1-068767_E55A_D102V (antibody, V domains shown)
VH: B1 VH with E32Y, N52D, E56A, E57N, F110E
VL: not shown
B7: P1-068761_E32Y_E100fF (antibody, V domains shown)
VH: B1 VH with E32Y, G104H
VL: not shown
B8: P1-068761_E30D_E56N (antibody, V domains shown)
VH: B1 VH with E30D, E57N, G104H, F110E
VL: not shown
B9: P1-068761_E55A_E100fF (antibody, V domains shown)
VH: B1 VH with E56A, G104H
VL: not shown
B10: P1-068767_E100fF_D102V (antibody, V domains shown)
VH: B1 VH with E32Y, N52D, E57N
VL: not shown
B11: P1-068767_E55A_E100fF (antibody, V domains shown)
VH: B1 VH with E32Y, N52D, E56A, E57N, V112D
VL: not shown
B12: P1-070922 (P1-068767_E30D_E55A) (antibody, V domains shown)
VH: B1 VH with E30D, E32Y, N52D, E56A, E57N, F110E, V112D
VL: not shown
B13: P1-068767_D52N_E100fF (antibody, V domains shown)
VH: B1 VH with E32Y, E57N, V112D
VL: not shown
B14: P1-068761.IgG1.3 (antibody, V domains shown)
VH: B1 VH with G104H, F110E
VL: not shown
B15: P1-068761_E32Y_H100G (antibody, V domains shown)
VH: B1 VH with E32Y, F110E
VL: not shown
B16: P1-070900 (P1-068761_E56N_H100G) (antibody, V domains shown)
VH: B1 VH with E57N, F110E
VL: not shown
B17: P1-068767_D52N_D102V (antibody, V domains shown)
VH: B1 VH with E32Y, E57N, F110E
VL: not shown
B18: P1-070908 (P1-068767_E55A) (antibody, V domains shown)
VH: B1 VH with E32Y, N52D, E56A, E57N, F110E, V112D
VL: not shown
B19: P1-070872 (P1-068761_H100G) (antibody, V domains shown)
VH: B1 VH with F110E
VL: not shown
B20: P1-070914 (P1-068767_E30D_D52N) (antibody, V domains shown)
VH: B1 VH with E30D, E32Y, E57N, F110E, V112D
VL: not shown
B21: P1-068767_E100fF (antibody, V domains shown)
VH: B1 VH with E32Y, N52D, E57N, V112D
VL: not shown
B22: P1-070878 (P1-068761_E55A_E56N) (antibody, V domains shown)
VH: B1 VH with E56A, E57N, G104H, F110E
VL: not shown
B23: P1-070864 (P1-068761_E30D) (antibody, V domains shown)
VH: B1 VH with E30D, G104H, F110E
VL: not shown
B24: P1-061029.IgG1.3 (antibody, V domains shown)
VH: B1 VH with E30D, E32Y, E56A, E57N
VL: not shown
B25: P1-068761_E56N_E100fF (antibody, V domains shown)
VH: B1 VH with E57N, G104H
VL: not shown
B26: P1-068761_E30D_H100G (antibody, V domains shown)
VH: B1 VH with E30D, F110E
VL: not shown
B27: P1-068761_E30D_E32Y (antibody, V domains shown)
VH: B1 VH with E30D, E32Y, G104H, F110E
VL: not shown
B28: P1-068767_E30D_D102V (antibody, V domains shown)
VH: B1 VH with E30D, E32Y, N52D, E57N, F110E
VL: not shown
B29: P1-068761_E32Y_E55A (antibody, V domains shown)
VH: B1 VH with E32Y, E56A, G104H, F110E
VL: not shown
B30: P1-068761_E100fF (antibody, V domains shown)
VH: B1 VH with G104H
VL: not shown
B31: P1-068767_E30D_E100fF (antibody, V domains shown)
VH: B1 VH with E30D, E32Y, N52D, E57N, V112D
VL: not shown
B32: P1-070906 (P1-068767_D52N) (antibody, V domains shown)
VH: B1 VH with E32Y, E57N, F110E, V112D
VL: not shown
B33: P1-068761_E32Y (antibody, V domains shown)
VH: B1 VH with E32Y, G104H, F110E
VL: not shown
B34: P1-070868 (P1-068761_E55A) (antibody, V domains shown)
VH: B1 VH with E56A, G104H, F110E
VL: not shown
B35: P1-070890 (P1-068761_E30D_E55A) (antibody, V domains shown)
VH: B1 VH with E30D, E56A, G104H, F110E
VL: not shown
B36: P1-070870 (P1-068761_E56N) (antibody, V domains shown)
VH: B1 VH with E57N, G104H, F110E
VL: not shown
B37: P1-068767_D102V (antibody, V domains shown)
VH: B1 VH with E32Y, N52D, E57N, F110E
VL: not shown

Key:
[1] = molecular target: T1, monovalent hVISTA-ECD (amino acids 32-193 of SEQ ID NO: 1 with a 7xHis tail) (UniProt Q9H7M9 33-193); assay: SPR; pH 6.0
T1 sequence (Q9H7M9 other isoform, or with tags, fused parts or gaps): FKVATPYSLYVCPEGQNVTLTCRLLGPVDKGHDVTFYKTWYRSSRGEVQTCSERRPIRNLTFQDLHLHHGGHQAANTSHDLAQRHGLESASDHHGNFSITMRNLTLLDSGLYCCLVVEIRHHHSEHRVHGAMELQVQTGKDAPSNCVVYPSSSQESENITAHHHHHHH

[2] = molecular target: T1, monovalent hVISTA-ECD (amino acids …); assay: SPR; pH 7.4
[3] = molecular target: T1, monovalent hVISTA-ECD (amino acids …); assay: SPR; pH 6.7
[4] = molecular target: T1, monovalent hVISTA-ECD (amino acids …); assay: SPR; pH 6.0; remark: listed apart in the source
[5] = molecular target: T1, monovalent hVISTA-ECD (amino acids …); assay: SPR; pH 6.7; remark: listed apart in the source
[6] = molecular target: T1, monovalent hVISTA-ECD (amino acids …); assay: SPR; pH 7.4; remark: listed apart in the source

Row | Binder | Kd [1] | Kd [2] | Kd [3] | Kd [4] | Kd [5] | Kd [6]
1 | B1 | 0.23 nM | 41 nM | 2.3 nM | – | – | –
2 | B2 | 1.2 nM | 42 nM | 5.1 nM | – | – | –
3 | B3 | 0.43 nM | 48 nM | 3.7 nM | – | – | –
4 | B4 | – | – | – | 9.6 nM | – | –
5 | B5 | – | – | – | 4 nM | 120 nM | –
6 | B6 | – | – | – | 1.9 nM | 15 nM | 280 nM
7 | B7 | 0.25 nM | 3.7 nM | 1.1 nM | – | – | –
8 | B8 | 50 nM | – | ~32 nM | – | – | –
9 | B9 | 0.26 nM | 14 nM | 1.5 nM | – | – | –
10 | B10 | – | – | – | 2.7 nM | 11 nM | 41 nM
11 | B11 | – | – | – | 62 nM | – | –
12 | B12 | – | – | – | 8.3 nM | – | –
13 | B13 | – | – | – | 20 nM | ~39 nM | –
14 | B14 | 2.6 nM | – | 71 nM | – | – | –
15 | B15 | 0.48 nM | 72 nM | 5 nM | – | – | –
16 | B16 | 10 nM | – | – | – | – | –
17 | B17 | – | – | – | 0.88 nM | 7.5 nM | 87 nM
18 | B18 | – | – | – | 5.7 nM | 380 nM | –
19 | B19 | 4.4 nM | – | 230 nM | – | – | –

Row | Binder | Kd [1] | Kd [2] | Kd [3] | Kd [4] | Kd [5] | Kd [6]
20 | B20 | – | – | – | 5.8 nM | 120 nM | –
21 | B21 | – | – | – | ~42 nM | 5200 nM | –
22 | B22 | 21 nM | – | 210 nM | – | – | –
23 | B23 | 8.3 nM | – | 370 nM | – | – | –
24 | B24 | – | 32 nM | 11 nM | – | 11 nM | 32 nM
25 | B25 | 1.4 nM | 65 nM | 6.5 nM | – | – | –
26 | B26 | 15 nM | – | ~81 nM | – | – | –
27 | B27 | 0.24 nM | 21 nM | 2 nM | – | – | –
28 | B28 | – | – | – | 2.1 nM | 17 nM | 220 nM
29 | B29 | 0.31 nM | 23 nM | 2 nM | – | – | –
30 | B30 | 0.19 nM | 20 nM | 1.3 nM | – | – | –
31 | B31 | – | – | – | ~82 nM | 10000 nM | –
32 | B32 | – | – | – | 3.2 nM | 210 nM | –
33 | B33 | 0.21 nM | 18 nM | 1.6 nM | – | – | –
34 | B34 | 3.4 nM | – | 120 nM | – | – | –
35 | B35 | 12 nM | – | ~110 nM | – | – | –
36 | B36 | 19 nM | – | ~8200 nM | – | – | –
37 | B37 | – | – | – | 1.3 nM | 14 nM | 170 nM
